Data taken from US12281155 (INSTITUT PASTEUR, dated 2025).

Experiments:
[1] = target: T1, recombinant SARS-CoV-2 Spike RBD domain, BA.2.75.2 variant (SARS-CoV-2); assay: ELISA on coated RBD
T1 construct: also called RBD BA.2.75.2 variant

[2] = target: T2, recombinant SARS-CoV-2 Spike RBD domain, Delta variant (SARS-CoV-2); assay: ELISA on coated RBD
T2 construct: also called RBD Delta variant

[3] = target: T3, recombinant SARS-CoV-2 Spike RBD domain, XBB.1.16 variant (SARS-CoV-2); assay: ELISA on coated RBD
T3 construct: also called RBD XBB.1.16 variant

[4] = target: T4, recombinant SARS-CoV-2 Spike RBD domain, JN-1 variant (SARS-CoV-2); assay: ELISA on coated RBD
T4 construct: also called RBD JN-1 variant

[5] = target: T5, recombinant SARS-CoV-2 Spike RBD domain, BA.2 variant (SARS-CoV-2); assay: ELISA on coated RBD
T5 construct: also called RBD BA.2. variant

[6] = target: T6, recombinant SARS-CoV-2 Spike RBD domain, BQ.1.1 variant (SARS-CoV-2); assay: ELISA on coated RBD
T6 construct: also called RBD BQ.1.1. variant

[7] = target: T7, recombinant SARS-CoV-2 Spike RBD domain, BA.2.86 variant (SARS-CoV-2); assay: ELISA on coated RBD
T7 construct: also called RBD BA.2.86 variant

[8] = target: T8, recombinant SARS-CoV-2 Spike RBD domain, BA.4/5 variant (SARS-CoV-2); assay: ELISA on coated RBD
T8 construct: also called RBD BA.4/5 variant

[9] = target: T9, recombinant SARS-CoV-2 Spike RBD domain, EG.5 variant (SARS-CoV-2); assay: ELISA on coated RBD
T9 construct: also called RBD EG.5.1 variant

[10] = target: T10, recombinant SARS-CoV-2 Spike RBD domain, XBB.1.5 variant (SARS-CoV-2); assay: ELISA on coated RBD
T10 construct: also called RBD XBB.1.5 variant

[11] = target: Spike protein of SARS-CoV-2 strain XBB.1.5 (GISAID EPI_ISL_16353849) (SARS-CoV-2); assay: cell-based or functional assay
[12] = target: Spike protein of SARS-CoV-2 strain EG.5.1 (hCoV-19/France/GES-IPP15954/2023) (SARS-CoV-2); assay: cell-based or functional assay
[13] = target: Spike protein of SARS-CoV-2 strain BA.2.86 (hCoV-19/France/IDF-IPP17625/2023) (SARS-CoV-2); assay: cell-based or functional assay
[14] = target: Spike protein of SARS-CoV-2 strain XBB.1.16 (hCoV-19/France/GES-IPP7712/2023) (SARS-CoV-2); assay: cell-based or functional assay
[15] = target: Spike protein of SARS-CoV-2 strain JN.1 (hCoV-19/France/HDF-IPP21391/2023) (SARS-CoV-2); assay: cell-based or functional assay
[16] = target: Spike protein of SARS-CoV-2 strain D614G (hCoV-19/France/GE1973/2020) (SARS-CoV-2, UniProt P0DTC2 14-1273); assay: cell-based or functional assay
[17] = target: T1, recombinant SARS-CoV-2 Spike RBD …; assay: competition ELISA, blocking of RBD binding to ACE2 ectodomain
[18] = target: T2, recombinant SARS-CoV-2 Spike RBD …; assay: as above
[19] = target: T3, recombinant SARS-CoV-2 Spike RBD …; assay: as above
[20] = target: T4, recombinant SARS-CoV-2 Spike RBD …; assay: as above
[21] = target: T5, recombinant SARS-CoV-2 Spike RBD …; assay: as above
[22] = target: T6, recombinant SARS-CoV-2 Spike RBD …; assay: as above
[23] = target: T7, recombinant SARS-CoV-2 Spike RBD …; assay: as above
[24] = target: T8, recombinant SARS-CoV-2 Spike RBD …; assay: as above
[25] = target: T9, recombinant SARS-CoV-2 Spike RBD …; assay: as above
[26] = target: T10, recombinant SARS-CoV-2 Spike RBD …; assay: as above

Row | Binder | Binding AUC [1] | Binding AUC [2] | Binding AUC [3] | Binding AUC [4] | Binding AUC [5] | Binding AUC [6] | Binding AUC [7] | Binding AUC [8] | Binding AUC [9] | Binding AUC [10] | IC50, S-Fuse neutralization of live virus [11] [µg/mL] | IC50, S-Fuse neutralization of live virus [12] [µg/mL] | IC50, S-Fuse neutralization of live virus [13] [µg/mL] | IC50, S-Fuse neutralization of live virus [14] [µg/mL] | IC50, S-Fuse neutralization of live virus [15] [µg/mL] | IC50, S-Fuse neutralization of live virus [16] [µg/mL] | Blocking % [17] [%] | Blocking % [18] [%] | Blocking % [19] [%] | Blocking % [20] [%] | also measured
1 | SPK002M B1 antibody (antibody, human IgG1, kappa, V domains shown) VH: EVQLVESGGGLIQPGGSLRLSCAASIITVTSNYMSWVRQAPGKGLEWVSVIYPGGSTFYADSVKGRFTISYDNSKNTLYLQMNSLRAEDTAVYYCARDLVVYGMDVWGQGTTVTVSS VL: EIVLTQSPGTLSLSPGERATLSCRASQSVSDSYLAWYQQKPGQAPRLLIYGASSRATGIPGRFSGSGSGTDFTLTISRLEPEDFAIYYCQYGVTFGGGTKVEIKR | 30 | 33 | 30 | 38 | 29 | 31 | 39 | 31 | 33 | 31 | 0.07 | 0.19 | 0.03 | 0.18 | 4.1 | 0.11 | 91 | 91 | 97 | 66 | Blocking % [21]: 95%; Blocking % [22]: 97%; Blocking % [23]: 94%; Blocking % [24]: 95%; Blocking % [25]: 95%; Blocking % [26]: 97%
2 | SPK002M C2 antibody (antibody, human IgG1, kappa, V domains shown) VH: EVQLVESGGGLIQPGGSLRLSCAASIITVTSNYMSWVRQAPGKGLEWVSVAYPGGSTFYADSVKGRFTISTDNSKNTLYLQMNSLRAEDTAVYYCARDLVVYGMDVWGQGTTVTVSS VL: EIVLTQSPGTLSLSPGERATLSCRASQSVSSSYLAWYQQKPGQAPRLLIYGASSRATGIPGRFSGSGSGTDFTLTISRLEPEDFAVYYCQQGVTFGGGTKVEIKR | 28 | 32 | 29 | 33 | 23 | 31 | 38 | 30 | 32 | 31 | 0.14 | 2.16 | 0.05 | 0.21 | 53.8 | 0.06 | 92 | 90 | 93 | 28 | Blocking % [21]: 93%; Blocking % [22]: 95%; Blocking % [23]: 91%; Blocking % [24]: 93%; Blocking % [25]: 89%; Blocking % [26]: 93%
3 | SPK002M B2 antibody (antibody, human IgG1, kappa, V domains shown) VH: EVQLVESGGGLIQPGGSLRLSCAASIITVTSNYMSWVRQAPGKGLEWVSVIYPGGSTFYADSVKGRFTISYDNSKNTLYLQMNSLRAEDTAVYYCARDLVVYGMDVWGQGTTVTVSS VL: EIVLTQSPGTLSLSPGERATLSCRASQSVSSSYLAWYQQKPGQAPRLLIYGASSRATGIPGRFSGSGSGTDFTLTISRLEPEDFAIYYCQQGVTFGGGTKVEIKR | 29 | 32 | 30 | 28 | 26 | 31 | 39 | 30 | 32 | 32 | 0.14 | 5.53 | 0.19 | 0.32 | 85.8 | 0.09 | 91 | 88 | 92 | 0 | Blocking % [21]: 92%; Blocking % [22]: 95%; Blocking % [23]: 86%; Blocking % [24]: 91%; Blocking % [25]: 70%; Blocking % [26]: 92%
4 | SPK002M C1 antibody (antibody, human IgG1, kappa, V domains shown) VH: EVQLVESGGGLIQPGGSLRLSCAASIITVTSNYMSWVRQAPGKGLEWVSVAYPGGSTFYADSVKGRFTISTDNSKNTLYLQMNSLRAEDTAVYYCARDLVVYGMDVWGQGTTVTVSS VL: EIVLTQSPGTLSLSPGERATLSCRASQSVSDSYLAWYQQKPGQAPRLLIYGASSRATGIPGRFSGSGSGTDFTLTISRLEPEDFAVYYCQYGVTFGGGTKVEIKR | 28 | 32 | 29 | 39 | 28 | 31 | 38 | 30 | 32 | 31 | 0.07 | 0.16 | 0.03 | 0.12 | 1.73 | 0.08 | 95 | 94 | 96 | 83 | Blocking % [21]: 95%; Blocking % [22]: 97%; Blocking % [23]: 96%; Blocking % [24]: 97%; Blocking % [25]: 96%; Blocking % [26]: 96%
5 | SPK002M C3 antibody (antibody, human IgG1, kappa, V domains shown) VH: EVQLVESGGGLIQPGGSLRLSCAASIITVTSNYMSWVRQAPGKGLEWVSVIYPGGSTFYADSVKGRFTISTDNSKNTLYLQMNSLRAEDTAVYYCARDLVVYGMDVWGQGTTVTVSS VL: EIVLTQSPGTLSLSPGERATLSCRASQSVSSSYLAWYQQKPGQAPRLLIYGASSRATGIPGRFSGSGSGTDFTLTISRLEPEDFAVYYCQQGVTFGGGTKVEIKR | 29 | 33 | 31 | 29 | 19 | 31 | 38 | 32 | 33 | 32 | 0.13 | 6.08 | 0.33 | 0.3 | 60.1 | 0.08 | 94 | 95 | 90 | 0 | Blocking % [21]: 94%; Blocking % [22]: 94%; Blocking % [23]: 90%; Blocking % [24]: 94%; Blocking % [25]: 81%; Blocking % [26]: 90%
